Laboratory results taken from the nanobody polyreactivity screen of Harvey et al. (2022).

Test: yeast display, Sf9 membrane polyspecificity reagent, FACS + sequencing; frameworks hold sequencing errors
How it was run: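 Nanobodies from a synthetic yeast display library (Saccharomyces cerevisiae BJ5465), induced 36–48 hours with galactose, were stained 1 hour at 4 °C with 10% biotinylated, detergent-solubilized Sf9 membrane reagent, enriched on streptavidin microbeads, then FACS-sorted. Anti-HA (expression) and streptavidin (reagent binding) fluorescence set low and high (top ~1%) gates. Polyreactivity labels come from the gate of origin. Genes were colony-PCR amplified, MiSeq 2 × 250 sequenced and filtered by CDR length.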

Row | Sequence | polyreactivity (PSR sort gate)
1 | QVQLVESGGGLVQAGGSLRLSCAASGITFFDYAMGWYIQAPGKERELVAAIDLSDGRTYYADSVKGRFTISRDNAKNTVYLQMNSLKPEDTAVYYCARQHEDYVYYWYYWYDYDYWGQGTQVTVSS | low polyreactivity
2 | QVKLVESGGCLVQAGCSLSLSCAASGRTFVTYAMGWYRQAPGKEREFVAAISWSGVSTYYADSVKGRFTISRDNAKNTVYLQMNSLKPEDTAVYYCAAKRVRALYGGSEGGYWGQGTQVTVSS | low polyreactivity
3 | QFQLVESGGGLVQAGGSLRLSCADSGIIFRDNAMGWYRQAPGKERELVATIRRRGGGTYYADSVKGRFTISRDNAKNTVYLQMNSLKPEDSAVYYCAARVIKSSHDYDYWGQGTQVTVSS | low polyreactivity
4 | QVQLVESGGGLVQAGGSLRLSCAASGRNFCNYAMGWYIQAPGKERELVAVIRFSDGSTYYADSVKGRFTISRDNAKNTVYLQMNSLKPEDTAVYYCAAKGPRRWGSGFDYWGQGTQVTVSS | low polyreactivity
5 | QVQLVESGGGLVQAGGSLRLSCAASGFTFVRYTMGWYRKAPGKERELVAAITASGDRTYYADSVKGRFTISRDNAKNTVYLQMNSLKPEDTAVYYCAKEYWGVTPTYYYWGQGTQVTVSS | high polyreactivity
6 | QVQLVESGGRLVQAGGSLRLICAASGFTFGAYAMGWYRQAPGKERELVATIPYSGDSTYYADSVKGRFTISRDNAKNTVYLQMNSLKPEDTSVYYCAAYSTEGCGSPDWFESFDYWGQGTLVTVSS | low polyreactivity
7 | HVQLVESGGGLVQAGGSLRLSCAASGSTFNRYAMGWYRQAPGKERELVAAITERGGSTYYADSVKGRFTISRDNAKNTVYLQMNRLIPEDTAVYYCAARSKYYRSTPFVSDYWGQGTQVTVSS | high polyreactivity
8 | QVQLVESGGGLVQAGGSLRLSCAASGSTFNDYVMGWYRQAPGKERELVAAISRSGGSTYYADSVKGRFTISRDNAKNTVYLQMNSLNPEDTAVYYCAAASPGPWRYDYWGQGTQVTVSS | high polyreactivity
9 | QVQLVESGGGLVQAGGSLRLSCAASGLIFFNYYAMGWYRQAPGKERELVAAIRYGGGSTYYADSVKGRFTISRDNAKNTVYLLMNSLKPEDTAVDYCAARFKGYYRYGYWGQGTQVTVSS | high polyreactivity
10 | QVQLVESGGGLVQAGGSLRLSCAASGRIFRRYAMGWYRQAPGKEREFVAAITWSGSSTYYADSVKGRFTISRDNAKNTVYLQMNSLKPEDTAVYYCAARHYAVRRSRYPGKLGYYWGQGTQVTVSS | high polyreactivity
11 | QVQLVESGGGLVQAGGSLRLSCAASGIIFYIYTMAWYRQAPGKERELVAAINRSGSRTYYADSVKGRFTISRDNAKNTVYLQMNSLKPEDTAVYYCAAGTGSRDDYWGQGTQVTVSS | high polyreactivity
12 | QVQLVESGGGLVQAGGTLRLSCAASGSILTPNAMGWSRQAPGKERELVAAISDNAGSTYYADSVKGRFTISRDNAKNTVYLQMNSLKPEDTAVYYCAAEYWEYNLVYLVYYYSMDYWGQGTQVTVSS | high polyreactivity
13 | QVQLVESGGGLVQAGGSLRVSCAASGFIFLAYAMGWYSQAPGKERELFAAIDTSGGSTYYADSVKGRFTSTRDNAKNTVYLQMNSLKPEDSAVYYCAADDYDQYYFDYDYWGQGTQVTVSS | low polyreactivity
14 | QVQLVESGGGLVQAGGSLRLSCAASGSIFLYYVMGWYRKAPGKERELVAAITWDGGSTYYADSVKGRFTISRDNAKNTVYLQMNSLKPEDTAVYYCNKGFKLWPRYGYDYWGQGTQVTVSS | low polyreactivity
15 | QVQLVDSGGGLVQAGGSLRLSCAASGSIFIINAKGWYRQSPGKERELVAAINSGGSTKYADSVKGRFTISRDNAKNTVYLQMNSLKPEDTAVYYCNAGSRPTAGGMDSWGQGTQVTVSS | low polyreactivity
16 | QVQLVESGGGLVQAGGSLRLSCAASGFTFYRNAMGWYRQAPGKERELVARIRGTGGRTYYADSVKGRFTISRDNAKNTVYLQMNSLKPEDTAVYYCNVGRGYSFANGDYWGQGTQVTVSS | high polyreactivity
17 | QVQIVESGGGLVQAGGSLRLTCAASGSTFYDYAMGWYRQAPGKERDLVAAITSADSTNYADSVKGRFTISRDNAKNTVYLQMNSLKPEDTAVYYCGQGTQVTVSS | low polyreactivity
18 | QVQLVESGGCLVQAGGSLRLSSAASGSTFQNYAMGWYRQATGKERELVAAISSGGRTYYADSVKGRFTISRDNAKNTVYLQMYSLKPEDTAVYYCAVRYRVYKFQYGYWGQGTQVTVSS | high polyreactivity
19 | QVQLVESGGGLVQAGGSLRLSCAASVRIFRINTMGWYRQAPGKERELVAAIRTSGSSTYADSVKGRFTISRDNAKNTVYLQMNSLKPEDTAVYYCNTKYPGRGYYWGQGTQVTVSS | high polyreactivity
20 | QVQLEESGGGLVQAGGSLRLSCAGSGFISNGYALGWYRQAPGKEREFVASISSTGGRTYYADSVKGRFTISRDNAKNTVYLLMNSLKPEDTSVYYCAKDPQPRYWVDYWGQGTQVTVSS | low polyreactivity
21 | QVQLVESGGGLGQAGGSLRLSCAASGRTFYDNAMGWYRPAPGKERELVAAISSSGSSTYYADSVKGRFTISLDNAKNTVYLQKNSLKPEDTAVYYCSASYTDYYFGFGTDVRYGYWGQGTQVTVSS | high polyreactivity
22 | QVQLVESGGGLVQAGGSLRLSCAASGNIFGFYTMGWYRQAPGKERELVAAIRSRGGSTNYADSVKGRFTISRDNAKNTVYIQMNSLKPEDTAVYYCNKDGTWLARAVTYADFDYWGQGTQVTVSS | low polyreactivity

Row | Sequence | polyreactivity (PSR sort gate)
23 | QVQLVESGGGLVQAGGSLRLSCAASGFIFVGNDMGWYRQAPGKERELVAAISSGGSTYYADSVKGRFTISRDNAKNTVYLQMNSLKPEDTAVYYCAATYVYYLYGYWGQGTQVTVSS | low polyreactivity
24 | QVQLVESGGGLVQAGGSLRLSCAASGRTFYRNAMGWSRQAPGKEREFVAVISVSGGSTYYADSVKGRFTISRDNAKNTVYLQMNSLKPEDTAVYYCAKRGPVRKTAYDYWGQGTQVTVSS | low polyreactivity
25 | QVQLVESGGCLVQAGGSLRLSCAASGFIFRQYAMGWYRQAPGKERELVAAISTGGGRTYYADSVKGRFTISRDNAKNTVYLQMNSLKPEDTAVYYCAAGYPYSYRDYYYWGQGTQVTVSS | high polyreactivity
26 | QVQHVESGGGLVQAGGSLRLSCAASGFIFTHYTMGWSRQAPGKESELVAVISSAGSTYYADSVKGRFTISRDNAKNTVYLQMNSLKPEDTAVYYCNKVVRQVHGRGLDYWGQGTQVTVSS | high polyreactivity
27 | QVQLVESGGGLVQAGGSLRLSCAASGSTCDYYAMGWYRQAPGKEREIVAAITTGGDTTNYADSVKGRFTISRDNAKNTVYLQMNSLKPEVTAVYYCARDTGYDLIVLPDDSWGQGTQVTVSS | low polyreactivity
28 | QVQLVESGGGLVQAGGILRLSCAASGSTFNDYAMGRYRQAPGKERELVAAISASGSITYYADSVKGRFTISRDIAKNTVNLQMISLKPEDTAVYYCNARGYRGYDYWGQGTQVTVSS | high polyreactivity
29 | QVQLVESGGGLVQAGGSLRLSCAASGSTSPLYAMGWYRQAPGKERELVAAISWSTGSTYYADSVKGRFTISRDNAKNTVYLQMNSLKPEDTAVYYCAADYWFRYGTYEYWGQGTQVTVSS | high polyreactivity
30 | QVQLVESGGGLVQAGGSLRLSCAASGRIFSLNAMGWYRQAPGKERELVAGIRKRGGSTYYADSVKGRFTISRDNAKNTVYLQMNSLKPEDTAVYYCAADRFAFYGRYRGPYYYWGHGTQVTVSS | high polyreactivity
31 | QVQLVESGGGLVQAGGSLRLSCAASGNIFYQYAMGWYRQAPGKDREFVAAISISGTSTYADSVKGRFTISRDNAKNTVYLQMNSLKPEDTAVYWGQGTQVTVSS | low polyreactivity
32 | QVQLVESGGGLVQAGGSLRLSCAASGFTFWDYAMGWYRQAPGKESELVAAISDNDGSTDYADYVKGRFTISRDNAKNTVYLPMNSLKPEDTAVYYCNGEIELPSKEGDYWGQGTQVTVSS | low polyreactivity
33 | QVQLVESGGGLVQAGGSLRLSCAASGFIFPANAMGWYRQAPGKEREFVAAISRSGGTTYYADSVKGRFTISRDNAKNTVYLQMNSLKPEDTAVYYCAARYAIGPGYDYWGQGTQVTVSS | high polyreactivity
34 | QVQLVESGGGLVQAGRSLRLSCAASGRTFSVNAMGCYRQAPVKERELVAAISWDGGSTYYADSVKGRFTISRDNAKNTVYLQMISLKPEDTSVYDCNKDLYYAYDYWGQGSQVTVSS | low polyreactivity
35 | QVQLVESGGGLVQAGGSLRLSCAASGGTFKTNAMGWYRQAPGKERELVAAITGSGTSTYYADSVKGRFTISRDNAKNTVYLQMNSLKPEDTAVYYCAADKLYQPGIGDDYWGQGTQVTVSS | low polyreactivity
36 | QVQLQETRGGLDQAGDSLRLRCAASVSTLPVYTIARYRKAAVKEREFVAANTYTGGRTYYSDSVKGRFTISRDNAKNSVYLQMKSLKPDDTAVYYCAAEYGTYFVRYFAGASYRYGYWGQGTQVTVSS | low polyreactivity
37 | QVQLVESGGGIVQAGGSHRLSCAASGRIFGVNAMGWYRQATGKERELVAAISVSGDSTYYADSVKGRFTISRDNAKNTVYLQMNSLKPEDTAVYYCNAGYTFVPADLTDEYYWGQGTQVTVSS | low polyreactivity
38 | QGHLVESWGGLVQAGGSLRLSCAASGSIFKDNAMGWYRQAPGKERELVAAITWSGGSTYYADSVKGRFTSSRDNANNTVYLQMNSLKAEDTAVDRYKYDYWGQGTQVTVSS | low polyreactivity
39 | QVQLVESGGGLVQAGGSLRLSCAASGLIFYNYAMGWYRQAPGKERELVAAISRSGGRTYYADSVKGRFTISRDNAKNTVYLQMNSLKPEDTAVYYCNAVHVSIEGYYWGQGTQVTVSS | high polyreactivity
40 | QVQLVESGGGLVQAGGSLRLSCAASGFTFDGYAMGWDRQAPGNERELVAAFSDSGDSTYYADSVKGRFTISRDNAKNTVYLQMNSLTPEDTAVYYCAAGLGYYWSDYFAYDSCGQGTQVTVSS | low polyreactivity
41 | QVQLVESGGGLVQAGGSLRLSCAASGSIFDVNAMGWYRQAPGKERELVAAISDSGGSTYYADSVKGRFTISRDNAKNTVYLQMNSLKPEDSAVYYCNADWSWYNYYDFDYWGQGTQVTVSS | low polyreactivity
42 | QVQLVESGGGLVQAGGSLRLSCAASGGTFVSYALGWSRQAPGKERELVAAITYSGGSTYYADSVKGRFTISRDTAKNTVYLQMNSLKPEDTAVYYCAADLGRNLLHTYYYWGQGTQVTVSS | low polyreactivity
43 | QVQLVESGGGLVQAGGSLRLSCAASGNTFVYKDMGWYRQAPGKERELVADIRYSGSTYYADSVKGRFTISRDNAKNTVYLQMNSLKPEDTAVYYCAKAYYVLSWMGYWGQGTQVTVSS | low polyreactivity
